Laboratory results from patent US20250333531A1.

Target: human CD37 (human) (UniProt P11049)
Test: flow cytometry on Ramos cells (HEK293 supernatants), MFI normalised to chHH1-DOTA

human CD37 (human), sequence (P11049 whole entry): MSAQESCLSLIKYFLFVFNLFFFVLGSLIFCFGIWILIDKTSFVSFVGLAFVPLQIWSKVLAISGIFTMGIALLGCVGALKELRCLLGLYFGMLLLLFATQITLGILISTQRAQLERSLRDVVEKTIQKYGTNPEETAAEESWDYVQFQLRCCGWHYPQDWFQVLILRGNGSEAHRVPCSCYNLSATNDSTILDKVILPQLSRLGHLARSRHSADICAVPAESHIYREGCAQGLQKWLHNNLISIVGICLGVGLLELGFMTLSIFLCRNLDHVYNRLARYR

B1: HC1 + LC1 (antibody, human IgG1, V domains shown)
VH: QVQLVQSGAEVKKPGASVKVSCKASGYSFTDYNMYWVRQAPGQRLEWMGYIDPYNGDTTYNQKFKGRVTITRDTSASTAYMELSSLRSEDTAVYYCARSPYGHYAMDYWGQGTLVTVSS
VL: DIQMTQSPSSLSASVGDRVTITCKASQDVSTAVDWYQQKPGKAPKLLIYWASTRHTGVPSRFSGSGSGTDFTLTISSLQPEDFATYYCRQHYSTPFTFGQGTKLEIK
- Normalized average binding (%): 40%
